Test results reported in patent US20180214514A1 (GEORGETOWN UNIVERSITY, published 2018).

B1: MBP-tagged C66 fusion protein (C-terminal 66-amino acid FGF-binding domain of human BP3) (other, not shown: large carriers)
chain: APPKENPSERKTNEGKRKAALVPNEERPMGTGPDPDGLDGNAELTETYCAEKWHSLCNFFVNFWNG
notes: MBP fusion with an apparent molecular mass of 52 kDa; also called C66 fragment; C-terminal hBP3 region
B2: human recombinant FGFR1 Fc chimera (Fc fusion, UniProt P11362 22-376, looked up)
chain: RPSPTLPEQAQPWGAPVEVESFLVHPGDLLQLRCRLRDDVQSINWLRDGVQLAESNRTRITGEEVEVQDSVPADSGLYACVTSSPSGSDTTYFSVNVSDALPSSEDDDDDDDSSSEEKETDNTKPNRMPVAPYWTSPEKMEKKLHAVPAAKTVKFKCPSSGTPNPTLRWLKNGKEFKPDHRIGGYKVRYATWSIIMDSVVPSDKGNYTCIVENEYGSINHTYQLDVVERSPHRPILQAGLPANKTVALGSNVEFMCKVYSDPQPHIQWLKHIEVNGSKIGPDNLPYVQILKTAGVNTTDKEMEVLHLRNVSFEDAGEYTCLAGNSIGLSHHSAWLTVLEALEERPAVMTSPLYLE
notes: It was immobilized on a CM-5 SPR chip; not shown: Fc part of the chimera

Assays:
human recombinant FGF19 = biological target: T1, human recombinant FGF19 (human, UniProt O95750 25-216); assay: SPR, C66 over immobilized FGF19 (FIG. 7B)
T1 construct: Bought recombinant protein; also called fibroblast growth factor 19

[1] = biological target: T2, human recombinant FGFR4 Fc Chimera (human, UniProt P22455 22-369); assay: SPR, C66 over immobilized FGFR4 (FIG. 7B)
T2 construct: Bought reagent; It was immobilized on ELISA plates and on a CM-5 SPR chip; also called FGF Receptor 4; fibroblast growth factor receptor 4; Fc part of the bought chimera not given
Procedure: (§1) Biacore T200 instrument (GE Healthcare) was used for surface plasmon resonance measurements. Human recombinant FGFR4 or FGFR1 Fc chimera in HBS-P buffer (0.01 M HEPES pH 7.4, 0.15 M NaCl, 0.05% P-20) were immobilized on a flow cell of a CM-5 sensor chip (GE Healthcare, Piscataway, N.J.) via amine coupling. A blank flow cell was used as a negative control for non-specific binding to the sensor surface. […] Dissociation constants were calculated from the association and dissociation rates of the proteins after washing. The experiments were performed in triplicate.

[2] = biological target: B2; assay: SPR, equilibrium binding to immobilized FGFR1 Fc chimera (FIG. 7C)
Procedure: as §1

[3] = biological target: T3, MBP-tagged recombinant human FGFBP3 (MBP-BP3) (human, UniProt P0AEX9 27-392 = MBP, limits assumed); assay: SPR, BP3 over immobilized FGFR1 Fc chimera (FIG. 6B)
T3 construct: Bacterially expressed MBP fusion; The order MBP then BP3 follows the pMAL-p2X vector design; also called hBP3
Procedure: as §1

T1 sequence (O95750 25-216 limits assumed): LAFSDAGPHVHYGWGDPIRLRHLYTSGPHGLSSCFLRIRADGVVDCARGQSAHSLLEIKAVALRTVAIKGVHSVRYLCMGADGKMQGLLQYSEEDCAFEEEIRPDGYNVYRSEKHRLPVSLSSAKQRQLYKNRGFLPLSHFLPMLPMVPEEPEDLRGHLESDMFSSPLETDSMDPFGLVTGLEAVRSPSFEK

| Binder | binding result (human recombinant FGF19) | binding result [1] | binding result [2] | binding result [3] |
| --- | --- | --- | --- | --- |
| B1 | binds | no binding (tested: 245 nM) | no binding (tested: 245 nM) |  |
| B2 |  |  |  | no binding (tested: 4, 2, or 1 nM) |
